From IntAct's records for PubMed 19918049

B1: Serine/threonine-protein kinase haspin (Homo sapiens), Q8TF76-1 (parent)
chain: MAASLPGPGSRLFRTYGAADGRRQRRPGREAAQWFPPQDRRRFFNSSGSSDASIGDPSQSDDPDDPDDPDFPGSPVRRRRRRPGGRVPKDRPSLTVTPKRWKLRARPSLTVTPRRLGLRARPPQKCSTPCGPLRLPPFPSRDSGRLSPDLSVCGQPRDGDELGISASLFSSLASPCPGSPTPRDSVISIGTSACLVAASAVPSGLHLPEVSLDRASLPCSQEEATGGAKDTRMVHQTRASLRSVLFGLMNSGTPEDSEFRADGKNMRESCCKRKLVVGNGPEGPGLSSTGKRRATGQDSCQERGLQEAVRREHQEASVPKGRIVPRGIDRLERTRSSRKSKHQEATETSLLHSHRFKKGQKLGKDSFPTQDLTPLQNVCFWTKTRASFSFHKKKIVTDVSEVCSIYTTATSLSGSLLSECSNRPVMNRTSGAPSSWHSSSMYLLSPLNTLSISNKKASDAEKVYGECSQKGPVPFSHCLPTEKLQRCEKIGEGVFGEVFQTIADHTPVAIKIIAIEGPDLVNGSHQKTFEEILPEIIISKELSLLSGEVCNRTEGFIGLNSVHCVQGSYPPLLLKAWDHYNSTKGSANDRPDFFKDDQLFIVLEFEFGGIDLEQMRTKLSSLATAKSILHQLTASLAVAEASLRFEHRDLHWGNVLLKKTSLKKLHYTLNGKSSTIPSCGLQVSIIDYTLSRLERDGIVVFCDVSMDEDLFTGDGDYQFDIYRLMKKENNNRWGEYHPYSNVLWLHYLTDKMLKQMTFKTKCNTPAMKQIKRKIQEFHRTMLNFSSATDLLCQHSLFK

Variants of: B1
Settings: with h32_mouse H3c13, P84228

Variant | effect of a mutation on the interaction
D707L | decreasing interaction
E492A | decreasing interaction
H651A | decreasing interaction

Now from value to variant:

effect of a mutation on the interaction | Variant
decreasing interaction | G713F
decreasing interaction | D709N
